Patent publication US20260275311, “CRISPR NUCLEASE POLYPEPTIDES AND GENE EDITING SYSTEMS COMPRISING SUCH” (ARBOR BIOTECHNOLOGIES, INC., published 2026)
Changes are numbered by the printed parent chain.

T1: Nuclease A
T1 chain: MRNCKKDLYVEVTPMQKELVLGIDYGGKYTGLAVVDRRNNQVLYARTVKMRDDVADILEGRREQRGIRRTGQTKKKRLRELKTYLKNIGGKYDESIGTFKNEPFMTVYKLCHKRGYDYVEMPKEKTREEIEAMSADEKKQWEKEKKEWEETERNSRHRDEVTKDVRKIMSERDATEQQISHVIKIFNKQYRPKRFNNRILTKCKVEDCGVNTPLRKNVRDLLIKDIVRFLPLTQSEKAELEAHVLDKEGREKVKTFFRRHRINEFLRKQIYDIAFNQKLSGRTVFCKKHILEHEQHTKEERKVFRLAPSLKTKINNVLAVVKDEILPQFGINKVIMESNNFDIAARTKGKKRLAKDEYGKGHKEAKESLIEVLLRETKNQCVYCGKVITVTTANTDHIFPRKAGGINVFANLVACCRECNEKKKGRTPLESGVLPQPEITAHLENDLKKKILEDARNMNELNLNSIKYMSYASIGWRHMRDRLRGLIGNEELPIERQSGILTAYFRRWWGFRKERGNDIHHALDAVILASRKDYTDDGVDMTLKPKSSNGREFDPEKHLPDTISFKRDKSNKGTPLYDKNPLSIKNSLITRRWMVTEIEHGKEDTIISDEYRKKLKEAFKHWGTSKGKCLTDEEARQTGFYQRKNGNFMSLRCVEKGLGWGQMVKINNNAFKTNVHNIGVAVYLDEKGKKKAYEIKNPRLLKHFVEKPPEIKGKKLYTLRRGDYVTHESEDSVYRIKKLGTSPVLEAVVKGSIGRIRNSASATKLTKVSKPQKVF

T2: Nuclease A I67R/D568R/E706R
T2 chain: T1 chain with I67R, D568R, E706R

T3: Nuclease K D582R/I53R/T734R (D582R,I53R,T734R)
T3 chain: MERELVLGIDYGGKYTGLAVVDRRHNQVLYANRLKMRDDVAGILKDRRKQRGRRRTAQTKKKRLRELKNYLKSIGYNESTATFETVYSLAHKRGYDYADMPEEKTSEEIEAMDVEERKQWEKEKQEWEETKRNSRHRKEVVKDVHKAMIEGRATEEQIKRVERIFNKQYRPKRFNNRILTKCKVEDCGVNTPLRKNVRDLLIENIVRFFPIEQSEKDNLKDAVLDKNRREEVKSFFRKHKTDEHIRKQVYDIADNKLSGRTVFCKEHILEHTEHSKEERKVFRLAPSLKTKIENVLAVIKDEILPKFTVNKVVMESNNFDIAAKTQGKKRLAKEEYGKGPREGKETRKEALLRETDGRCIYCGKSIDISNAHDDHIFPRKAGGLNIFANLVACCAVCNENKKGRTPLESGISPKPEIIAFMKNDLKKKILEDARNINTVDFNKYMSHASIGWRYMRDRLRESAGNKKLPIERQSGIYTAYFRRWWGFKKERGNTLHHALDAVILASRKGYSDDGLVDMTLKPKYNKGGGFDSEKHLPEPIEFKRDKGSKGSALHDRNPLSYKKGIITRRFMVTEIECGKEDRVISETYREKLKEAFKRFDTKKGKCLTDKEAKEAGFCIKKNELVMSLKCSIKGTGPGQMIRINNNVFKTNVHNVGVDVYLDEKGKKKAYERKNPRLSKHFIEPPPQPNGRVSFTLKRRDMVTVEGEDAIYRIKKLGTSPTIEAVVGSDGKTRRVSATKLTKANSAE

T4: Nuclease K D582R/G42R (D582R,G42R)
T4 chain: T3 chain with G42R, R53I, R734T

T5: Nuclease K
T5 chain: T3 chain with R53I, R582D, R734T

B1: Nuclease A EMX1-T7 guide ; EMX1-T7 target (ssRNA ; dsDNA)
RNA: CUUUAGCAAGGGACUAUUCAGUUACAGUUAAGGCUCUUUGGAAACAAAGAAGCCUUAAUUGUAAAACGCCUAUAUGGUAAAGUGAUGUACGUUUGGGUAUAUAUCGCCAGCCUGAACCUCUACGCCAGAAAUGGCAGCUUUAUCAUGGGUUAGGACGAUAUUUAAAAAACUUUCUGCGGCUUGCUUACUUUAGUAAGCUUUGUGGCUGAGGCAGAAUUCCUU
DNA 1: CTTTAGCAAGGGACTATTCA
DNA 2: TGAATAGTCCCTTGCTAAAG
B2: Nuclease K VEGFA-T6 guide ; VEGFA-T6 target (ssRNA ; dsDNA)
RNA: UUUGCCCAUACUGGGGACCAGUUACAGUUAAGGCUCUGAAAAGAGCCUUAAUUGUAAAACGCCUAUACAGUGAAGGGAUAUACGCUUGGGUUUGUCCAGCCUGAGCCUCUAUGCCAGAAAUGGCGCCUUCAUCGUGGGUUAGGACAUUUAAAUUUAAAAACUAUUCAGCACUGUUUGCUCUUGUCAGCUUGGUGGCAGA
DNA 1: TTTGCCCATACTGGGGACCA
DNA 2: TGGTCCCCAGTATGGGCAAA

Tests used:
Nuclease A = target: T1, Nuclease A; assay: cell_activity; PAM NGG (GGG); HEK293T; details: tags: N-terminal SV40 NLS, C-terminal XTEN linker + nucleoplasmin NLS
Method: (§1) Approximately 16 hours prior to transfection, 25,000 HEK293T cells in DMEM/10% FBS+Pen/Strep (D10 media) were plated into each well of a 96-well plate. On the day of transfection, the cells were 50-90% confluent. For each well to be transfected, a mixture of Lipofectamine 2000™ (ThermoFisher Scientific) and Opti-MEM™ (ThermoFisher Scientific) was prepared and incubated at room temperature for 5 minutes (Solution 1). After incubation, the Lipofectamine 2000™: Opti-MEM™ mixture was added to a separate mixture containing the CRISPR nuclease plasmid (NLS-tagged), RNA guide plasmid, and Opti-MEM™ (Solution 2). In the case of negative controls, the CRISPR nuclease plasmid was excluded. Solutions 1 and 2 were mixed by pipetting up and down, then incubated at room temperature for 25 minutes. Following incubation, the Solution 1 and 2 mixture was added dropwise to each well of a 96-well plate containing the cells. […]
(§2) Each Nuclease A variant and RNA guide (see Table 5) was cloned as described in Example 2. […] For each target, indel ratios, referring to the percentage of NGS reads comprising indels, were calculated for Nuclease A (SEQ ID NO: 1) and for each variant of Nuclease A. The indel ratios shown in Table 6 were calculated as the average of two bioreplicates, each of which contained two technical replicates.

[1] = target: T2, Nuclease A I67R/D568R/E706R; assay: cell_activity; PAM NGG (GGG); HEK293T; details: tags: N-terminal SV40 NLS, C-terminal XTEN linker + nucleoplasmin NLS
Method: as §1, §2

[2] = target: T3, Nuclease K D582R/I53R/T734R; assay: cell_activity; PAM NGG; HEK293T; details: tags: N- and C-terminal NLS
Method: (§3) This Example describes indel assessment on mammalian targets using nuclease variants of Nuclease K comprising two or more substitutions identified as increasing indel activity in Example 8. 71 combination Nuclease K variants were tested.
(§4) Each Nuclease K variant and RNA guide (see Table 19) was cloned as described in Example 8. HEK293T cells were further transfected, followed by NGS analysis, as described in Example 8. For each target, indel ratios, referring to the percentage of NGS reads comprising indels, were calculated for the reference Nuclease K (SEQ ID NO: 65) and for each Nuclease K variant. The indel ratios shown in Table 20 were calculated as the average of two bioreplicates, each of which contained two technical replicates.

Nuclease K D582R/G42R = target: T4, Nuclease K D582R/G42R; assay: cell_activity; PAM NGG; HEK293T; details: tags: N- and C-terminal NLS
Method: as §3, §4

Nuclease K = target: T5, Nuclease K; assay: cell_activity; PAM NGG (AGG); HEK293T; details: tags: N-terminal SV40 NLS, C-terminal nucleoplasmin NLS

Binder	activity (Nuclease A)	activity [1]	activity [2]	activity (Nuclease K D582R/G42R)	activity (Nuclease K)
B1	0.033 indel ratio	0.337 indel ratio	–	–	–
B2	–	–	0.097 indel ratio	0.153 indel ratio	0.009 indel ratio
